According to a protein production outcome set (Wang et al. 2014):

Test: label from the status in PepcDB records
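Further: failed if final PepcDB status was selected cloned or expressed and not failed if soluble or beyond.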

Sequence	protein production
MGHERDWSLVQVALTDITARKKAEAYLEYLGKHDVLTKLHNRAFYSDELNRLERSALRPVSAIVIDLNGLKEANDKLGHDAGDALLRRVGEVLNGVVTAPNHAARIGGDEFAILLPGADKQVAAAMVDTVYELLKINNQFYSSAPLSLSLGVATTEAGETMESLVRRADMNMYEQKNAYYAALRNRSADNNDTTKGLEHHHHHH	not failed
PNILYKIDNQYPYFTKNEKKIAQFILNYPHKVVNMTSQEIANQLETSSTSIIRLSKKVTPGGFNELKTRLSKFLPKEVTQYNVELVDNESTISLKNKLHSRSKAAL	not failed
MAFLDKIKSAVIAEWHTHKILPSLTAAQAILESGWGKYAPHNALFGIKADSSWTGKSFNTKTQEEYQPGIVTDIVDRFRAYDSWEDSIADHGQFLVDNPRYKAVIGEADYKKACHAIKDAGYATASGYAELLIQLIEENNLQEWDAEAIKNKEEQMISSQCREVIEFFINLANAGVGVDKDSFAGWQCADVPCYAAKHWFGVDLWGNAIDLLDSAAAVGWEVHRMPTDANPRTGAFFVQSVPCHQFGHTGIVIEDSDGYTMRTVEQNIDGNPDALYVGAPARFNTRDFTGVLGWFYPPYQGDIVTQPVSTEPQNSDTIVETPKTGTFTLDVAEINIRRWPSLASEVVGSYKQGDTVSFDSEGYANGYYWISYVGGLGMRNYLAIGQTDKDGNRISIWGKLN	failed
MRIVAPVMPRHFDEAQAIDISKYEDVNLIEWRADFLPKDEIVAVAPAIFEKFAGKEIIFTLRTVQEGGNITLSSQEYVDIIKEINAIYNPDYIDFEYFTHKSVFQEMLDFPNLILSYHNFEETPENLMEAFSEMTKLAPRVVKIAVMPQSEQDVLDLMNYTRGFKTLNPEQEFATISMGKLGRLSRFAGDVIGSSWTYVSLDHVSGPGQVTLNDMKRIIEVLEMDISN	not failed
MNENTKVIKGRTGDWEMVLGLEVHAQVASKSKLFSGAAVGFGAGPNEQVSLVDAAMPGMLPVLNRFCVEQAVKTGLGLRAQINLKSRFDRKNYFYPDLPQGYQISQFDQPIVGEGVVSVERDDGTTFDVRIERLHLEQDAGKSLHDQDPNATYVDLNRAGTALMEIVSKPDMRTSEEAAAYVKKLRTILVYLGTCDGDMEKGNLRADVNVSVCRPGDYEKFRATGDFKHLGTRCEIKNVNSYRYIQQAIEYEARRQIEILEDGGKVDQETRLFDPTKGETRSMRSKEEAHDYRYFPDPDLLPLVLDPAWVKSIEETLPELPDAKKARLQSQYGLSAYDAGVLIIDADRADYFEAAAKGRDAKLVANWVTNELLAKLSAAGTEFTNSPLPHTDIAQLVELIENGTISSKIAKEVFEHMWAGEGRPAEIVEKRGLVQINDTGAIEKAIDDLIAGNPDKAEAVKDKPQALGWFVGQVMKATGGKANPGTVNELLRKKLGVE	failed
MNIKLYYVHDPMCSWCWGYKPTIEKLKQQLPGVIQFEYVVGGLAPDTNLPMPPEMQQKLEGIWKQIETQLGTKFNYDFWKLCTPVRSTYQSCRAVIAAGFQDSYEQMLEAIQHAYYLRAMPPHEEATHLQLAKEIGLNVQQFKNDMDGTLLEGVFQDQLSLAKSLGVNSYPSLVLQINDAYFPIEVDYLSTEPTLKLIRERIIENMSA	not failed
MFLVISVVGSSNIDIVLKVDHFTKPGETQKAIEMNVFPGGKGANQAVTVAKIGEKGCRFVTCIGNDDYSDLLIENYEKLGITGYIRVSLPTGRAFIEVDKTGQNRIIIFPGANAELKKELIDWNTLSESDILLLQNEIPFETTLECAKRFNGIVIFDPAPAQGINEEIFQYLDYLTPNEKEIEALSKDFFGEFLTVEKAAEKFLELGVKNVIVKLGDKGVLLVNKNEKKHFPTFKVKAVDTTAAGDVFNGAFAVALSEGKNPEEAVIFGTAAAAISVTRLGAQSSIPAREEVEAFLKNL	not failed
AIAMFTLPLLFPIITLPEPTGKYTVGTKAFHLIDTNRKETTVPNNHGNRELMIQVYYPAEKGSGKPSAYFENIDALAEQLAVTKGAPYIVTTHLGLTKTHSYQDAKPLQVKEKFPLLLFGHGMELYGQQNTFQLEELASQGYVVIALNFTGYAATTIFPNGKRIDSVPIEFTPNALNNMVRNWEQDTTFILNEVIKGNFDKNFTAIANLIDDDKIGMFGHSYGGATAAQMLVKDNRIKAAIDMDGGLYGDPMPKDGPQKPFMLMNAEATIQYMKEAENQKTDGIQDELFEISYLRNKTIEKPGAYTVVLPKTNHNSFTDLAAFSPIINEPGEDVSANYTLINKLVTSFFDQTLKG	failed
MPLHPTSQDCVVEQSVDALRERERRFRMLADNMSQLAWTASPRGQVQWYNERWYAYTGATLEAMVALGWRSVVHPEHRERVMARLQYCFATGSVWEDTFALRGKDGAFNWFLSRALPMRDAQGHITHWLGTHTDITAQVNAEEALRELNESLELRVAERTRELAKANELLQVEIAERAQAEEVLRHAQKMDAIGQLTGGIAHDFNNMLSGVLGALDMIRLRIGAQRFGEVDRYVDAAVSSANRAAALTQRLLTFARRQSLSVGTVDINCMVRSMEELLRGTVGNHAQLHIELEEGLSAIQTDEHQLENALLNLVINARDAVPVAGLISVRSQALRLVAQEGALAAGDYVRLSVEDNGCGIAQDVIDRVFDPFFTTKPVGQGTGLGLSMVYGFIKQTGGHVQIKSEQGQGTRICLYLPCGAATA	failed
MTAQPLLVFDFDGVIVDGMAEYWWSAWMAAQRLNAEPQGLGSDAVPQGFRRLRPWVHHGWEMVLLAAEMPQLDPERWVVDYATEQDMALQRRGWSASLLQEALDQTRQQAVSSDRAAWLGLHQPFPGLVDRLQAFQEEGVDWAVLTTKTAAFTAELLESLGLRPWRLDGREAGPKPEVLLRLQRERVLAGFVEDRRATLETVRDTDGLQSLPCWLASWGYLKPSDREDLPRGIQLIDQDRLATPLAQWP	failed
IMAKTAKVAVSQIVEHPALDATRQGLLDGLKAKGYEEGKNLEFDYKTAQGNPAIAVQIARQFVGENPDVLVGIATPTAQALVSATKTIPIVFTAVTDPVGAKLVKQLEQPGKNVTGLSDLSPVEQHVELIKEILPNVKSIGVVYNPGEANAVSLMELLKLSAAKHGIKLVEATALKSADVQSATQAIAEKSDVIYALIDNTVASAIEGMIVAANQAKTPVFGAATSYVERGAIASLGFDYYQIGVQTADYVAAILEGKEPGSLDVQVAKGSDLVINKTAAEQLGITIPEAVLARATSTK	not failed
MIKLKNDRLEVEIDNMGAQLTHVIGNESGYDYIWNGDAWKKHAPILFPAIGKSNNDEYVVDGKTYRMPQHGFARDFDWQKVNQAENRVMLELKSNAKTKEMFPFDFTLQVEYKLDQNQLLIGYRVINNDQRMMPYALGSHPAFNLPIDDDGVFEDYRLTFGPKQKQIKRLGVGPIPFRDGTEAPYPSIQASELALNHEMFDDGLIILNAKKLENVTLHSNQTAHEVKLNIKQFPYLTLWAMEHETQPFICIEPFAGLPDQASDQPTDWNNKKGNNLLEAGESHTFEYGIEFK	failed
MKKIEIFDPAMCCSTGVCGPSVDPELIRISVAVNNLKNKGIDVTRYNLASEPDAFANNGVISQLLTDKGPDVLPVTLVDGKVVKEKSHLTNEELTQLTDITEEELSQKPVVRLKLNVKK	not failed
MTAAPGTSMATPHVAGIAALLLQAHPSWTPDKVKTALIETADIVKPDEIADIAYGAGRVNAYKAINYDNYAKLVFTGYVANKGSQTHQFVISGASFVTATLYWDNANSDLDLYLYDPNGNQVDYSYTAYYGFEKVGYYNPTDGTWTIKVVSYSGSANYQVDVVSDGSLSQLEHHHHHH	not failed
VWEFYMPTDVFFGEKILEKRGNIIDLLGKRALVVTGKSSSKKNGSLDDLKKLLDETEISYEIFDEVEENPSFDNVMKAVERYRNDSFDFVVGLGGGSPMDFAKAVAVLLKEKDLSVEDLYDREKVKHWLPVVEIPTTAGTGSEVTPYSILTDPEGNKRGCTLMFPVYAFLDPRYTYSMSDELTLSTGVDALSHAVEGYLSRKSTPPSDALAIEAMKIIHRNLPKAIEGNREARKKMFVASCLAGMVIAQTGTTLAHALGYPLTTEKGIKHGKATGMVLPFVMEVMKEEIPEKVDTVNHIFGGSLLKFLKELGLYEKVAVSSEELEKWVEKGSRAKHLKNTPGTFTPEKIRNIYREALGV	not failed
MDSENAVKTTYGEFNGKKPFAVMLLGTDTGALDRTEKRGNTDTIIVVVVNPKKKNYTMISIPRDTMADMVGDDSNDVQKINAAYSIGGAKMAMKTVSNLLNIPVKYYALVNMGGLMKLVDYVGGIYVTPPLTFTYSGFPFKKRVRQHLNGQAALAYSRMRYDDPQGDYGRQKRQREVITKLVQKLATADSLTNFSKIANNLSSNVKTNLSFQALKSILANYSDCTSSSDSDYLHGYSTYVNDAAYQIAPTSELQRISNKIRKLLGLKTATVSNRETELNTLNETAGFKFGSGETQNYTLEHHHHHH	failed
MALDSPVGRRLGLVLQSRSNGVGPDQLFGDSELDHRAVCVIGEKGAERLAGPERGVVGRDSLCCVHTRPYGLWPLHWPRPAAATTLSRPAILTPRTATRTCMTEATGIVGEFLTLKEGTDADLLAMQCGDFYEFFAEDAEIVADELDLKVSQKSSHGSSYPMAGVPVDDLTPYVSALVERGYRVAIADQHETENGHAREITRVVTPGTHLETGDESAQYLAAVVREASRDSGDTYGIAATDVTTGQFQVTQLDDADAGEALTELYTFGPAEILPGPELRNDDEFLDRLRERTDAALTLHDSASFEPGRASHTVREQFGSETVDSVGIGDQNVAVRAAGAVLSYVEDTGVGTLAAVTRLQAYGERDHVDLDATTQRNLELTETMQGDSSGSLFDTIDHTVTAAGGRLLQQWLQRPRRNRAELQRRQSCVAALSEAAMARERIRETLSDAYDLERLAARATSGSADARDLRAVQETLALLGQVADAVTETERLAESPLADALDGADREAADSLAAELDSALVADPPGTVRQGGLFKRGHDDDLDEIIDEHEAALEWLETLPDREKERTGITHLSVDRNKTDGYYIQVGKSETDAVPEKYQHIKTLKNSKRYTTPELDEKERDVLRLEERRHDMEYEHFQRLRARVAEHATLLQDVGRTLAELDAFASLAVHAVENDWARPAVVDGNELSIEAGRHPVVEQTTEFVPNDLYMDDDRQFLIVTGPNMSGKSTYMRQAALITLLAQVGSFVPARSATVGLVDGIFTRVGALDELAQGRSTFMVEMQELSNILHSATEESLVILDEVGRGTATFDGISIAWAATEYIVNSIQSKTLFATHYHELTALGEELPTVENVHVAVDGEPRSAGSDGDVTFLRTVRDGPTDRSYGVHVADLAGVPEPVVDRSQAVLDRLRDDKAIEIRGSEQNDGGTTQAVFDLDSGQFRDGAAQSGGAAAGSTAEPVATDGDPEHAPGEAAAEGPKGDERAASLDSETEAVLSELTELDVNETPPVELMAKVQEWQAELDDE	failed
MAWMFLLLAAAFEVTFAMGMKYAEGFTRPWPSLLTVVAAVGGIYFLTLAMRELPVSVAYPIWTAIGSLGTVLLGCLLLGESLTAVKLVSVGLIVAGVAGLK	failed
MFYFMTLSFIIMPALGCFLIGLVLAKSDRWTFSWILSLIGLVAFISSFWHIERADLWFMLSYSFGPFLMGFGFTWDLSNKRRMQLLLLGLFFLIFFMILYYLIVRILNTAVV	failed
DSTGKTKTAYDFSAGGISPDAPLVVLFHGLEGSSRSHYAVELMLAVRNRGWHGAVVHFRSCGGVANTAPVFYHLGDTAEIAFALDTLTARYREIYAVGVSLGGNAPAKYLGEQGKKALPHASAAVSAPVDAEAAGSRFDSGITRLLYTRYFLRTLIPKARSLQGFQTAFAAGCKTLGEFDDRFTAPLHGFADRHDYYRQTSCKPLLKHVAKPLLLLNAANDPFLPPEALPRADEASEAVTLFQPAHGGHAGFVSST	failed
